The text below walks through data of US11202837B2, “Biological materials and uses thereof” (Antikor Biopharma Limited, priority 2014, dated 2021).

A short description of series [1]: Aggregation by HPLC size-exclusion chromatography. The format is physicochemical. The conditions noted are these: for aggregation by HPLC-SEC (in words): purified or analysed conjugate vs unconjugated antibody. On the procedure:
Aggregation can be tested by analytical size-exclusion HPLC measuring the percentage of high molecular weight material compared to the conjugate eluting at a retention time characteristic of a monomeric conjugate.
Typically, 20 μg of protein was injected for analytical runs and 300 μg for semi-preparative runs.
On the technique in general: In gel filtration, larger molecules generally elute earlier.

The next series has as its target HER2 (Homo sapiens, UniProt P04626). Put plainly: Biacore SPR binding to immobilised HER2. The conditions noted are these: immobilised HER2. On the procedure:
The binding affinity against immobilised HER2 target antigen was determined by Biacore SPR compared to the unmodified scFv on a Biacore T200. A standard amine-coupling method was used to prepare all Biacore surfaces (CM5 or CM3), as follows. Flow cells were activated individually by injecting a freshly mixed solution of 0.2M EDC in 0.05 M NHS at 30 μl/min. […] Excess NHS ester was deactivated using a 1 M ethanolamine solution. To measure the kinetics of the antibody and conjugate on the HER2 chip, a […] serial dilution (typically at 5, 2.5, 1.25, 0.6 μg/ml or lower for free antibody and 20, 10, 5, 2.5 μg/ml for the conjugates), was injected for 160 s at 30 μl/min, allowing a 900-s dissociation phase. The dissociation time was extended to 3600 s for the highest concentration. Surfaces were regenerated with 45 s injection of MgCl2 8M.
To evaluate binding ability, manual runs were performed at 30 μl/min with a 60 s injection of the desired compound followed by 60 s waiting time and a 45 s of regeneration at 10 μl/min using MgCl2 8M. All data was analysed using the software, BIAEvaluation.
In general terms: SPR reads the build-up and loss of mass on a sensor chip optically.

In another series the test system is U87 cells. Put plainly: Cell killing assay (MTS), U87 cells. The format is cell-based. To be noted: U87 Cells (HER2−), 96 hours, Table 46. On the procedure:
(§1) SKBr3, human breast cancer cell line, high HER2 expression levels, up to 1,000,000 receptors per cell [Lazar G A, et al Proc Natl Acad Sci USA. […] When confluency was 70-80%, cells were washed with PBS (2×10 ml) and incubated with trypsin for 5-7 min. Complete media was added and the cells were resuspended by pipetting. The cells were recovered by centrifugation (2 min, 2000 rpm), the supernatant was discarded, and the cells were resuspended in complete DMEM (5 ml). The cells were then counted using a haemocytometer and diluted accordingly. They were plated at 4500 cells/well (200 μl) using attachment factor and incubated overnight at 37° C., 5% CO2 in a humidified atmosphere. U87 is a non-HER2 expressing glioblastoma cell line and was grown in a similar way, plated at 1000 cells/well.
The cells were exposed to the various ADCs diluted in complete media for 96 hours at 37° C., 5% CO2 in a humidified atmosphere. Cell viability was measured using the Promega Aqueous Cell-titre-96™ aqueous one solution cell proliferation kit according to manufacturer's instructions. Briefly, the media was removed and 100 μl of complete phenol red free media, pre-combined with MTS reagent, was added to the cells (20 μl of reagent per 100 μl of media). The plates were read on an ELISA plate reader at 490 nm after a 2 hr incubation in the dark (5% CO2, 37° C.).
(§2) The data (absorption units) were converted to % cell survival by using the untreated controls as the 100% cell survival and the Triton X-100 controls as the 100% cell death. The average absorption value for the latter was subtracted from all the rest of the data in order to get a suitable baseline. The averages were converted to survival and standard error values were obtained for each n value (as a % cell survival). […] Experiments were repeated at least 3 times for each compound tested and a set or an average of the data was plotted and fitted to obtain a dose response curve.
(§3) The cells were recovered by centrifugation (2 min, 2000 rpm), the supernatant was discarded, and the cells were resuspended in complete McCoy's 5A (5 ml). The cells were then counted using a haemocytometer and diluted accordingly. They were plated at 5000 cells/well (200 μl) using attachment factor and incubated overnight at 37° C., 5% CO2 in a humidified atmosphere. U87 is a non-HER2 expressing glioblastoma cell line [Zitron I M et al (2013) BMC Cancer 13:83] and was grown in a similar way, plated at 1000 cells/well (using DMEM media). BT474 is a HER2 expressing breast cancer cell line [Brockhoff G et al (2007) Cell Prolif 40:488-507] and was grown in a similar way, plated at 7500 cells/well (using RPMI media). NCI-N87 is a HER2 expressing gastric cancer cell line [Yamashita-Kashima Y et al (2013) Oncol. Rep 30:1087-93] and was grown in a similar way, plated at 7500 cells/well (using RPMI media).
(§4) The cells were exposed to the various ADCs diluted in complete media for 96 hours at 37° C., 5% CO2 in a humidified atmosphere. Cell viability was measured using the Promega Aqueous Cell-titre-96™ aqueous one solution cell proliferation kit (MTS reagent) according to manufacturer's instructions. Briefly, the media was removed and 100 μl of complete phenol red free media, pre-combined with MTS reagent, was added to the cells (20 μl of reagent per 100 μl of media). The plates were read on an ELISA plate reader at 490 nm after a 2 hr incubation in the dark (5% CO2, 37° C.).
(§5) The data (absorption units) were converted to % cell survival by using the untreated controls as the 100% cell survival and the Triton X-100 controls as the 100% cell death. The average absorption value for the latter was subtracted from all the rest of the data in order to get a suitable baseline. The averages were converted to survival and standard error values were obtained for each n value (as a % cell survival).

The subject of the next series is SKBr3 cells. Put plainly: Cell killing assay (MTS), SKBr3 cells. Format: cell-based, human. To be noted: SKBr3 Cells (HER2+++), 96 hours, Table 46; for IC50: read-out: IC50. On the procedure: as §1
[…] Cell viability was measured using the Promega Aqueous Cell-titre-96™ aqueous one solution cell proliferation kit according to manufacturer's instructions. Briefly, the media was removed and 100 μl of complete phenol red free media, pre-combined with MTS reagent, was added to the cells (20 μl of reagent per 100 μl of media). The plates were read on an ELISA plate reader at 490 nm after a 2 hr incubation in the dark (5% CO2, 37° C.).
as §2, §3
[…] Cell viability was measured using the Promega Aqueous Cell-titre-96™ aqueous one solution cell proliferation kit (MTS reagent) according to manufacturer's instructions. Briefly, the media was removed and 100 μl of complete phenol red free media, pre-combined with MTS reagent, was added to the cells (20 μl of reagent per 100 μl of media). The plates were read on an ELISA plate reader at 490 nm after a 2 hr incubation in the dark (5% CO2, 37° C.).
as §5

The subject of another series is BT474 cells. Put plainly: Cell killing assay (MTS), BT474 cells. The conditions noted are these: BT474 Cells (HER2++), 96 hours, Table 46; for IC50: read-out: IC50. The format is cell-based, human. As to the method: as §3, §4
The data (absorption units) were converted to % cell survival by using the untreated controls as the 100% cell survival and the Triton X-100 controls as the 100% cell death. The average absorption value for the latter was subtracted from all the rest of the data in order to get a suitable baseline. The averages were converted to survival and standard error values were obtained for each n value (as a % cell survival). […] Experiments were repeated at least 3 times for each compound tested and a set or an average of the data was plotted and fitted to obtain a dose-response curve.

B1: scFv (TCT)-Acetate DAR 15 (conjugate)
scFv: SGSGGSGQVQLVQSGAEVKKPGESLKISCKGSGYSFTSYWIAWVRQMPGKGLEYMGLIYPGDSDTKYSPSFQGQVTISVDKSVSTAYLQWSSLKPSDSAVYFCARHDVGYCSSSNCAAWPEYFQHWGQGTLVTVSSGGGGSGGGGSGGGGSQSVLTQPPSVSAAPGQKVTISCSGSSSNIGNNYVSWYQQLPGTAPKLLIYGHTNRPAGVPDRFSGSKSGTSASLAISGFRSEDEADYYCAAWDDSLSGWVFGGGTKLTVLMASMTGGQQMG
Turning to B1, the “aggregation by HPLC-SEC (in words)” value in series [1] is given as “no aggregation”. In the series with HER2, this molecule returned an association rate of 5.93e+06 M⁻¹ s⁻¹ and a dissociation rate of 0.0171 s⁻¹.

B2: scFv (TCT)-MMAF-C5, DAR 6.6 (conjugate)
scFv: B1 scFv
Take B2: the figures for the “IC50 μg/ml” value in the series on U87 cells, with SKBr3 cells and in the series with BT474 cells were more than 5 µg/mL, 0.087 µg/mL and 0.2 µg/mL, respectively. Moreover, the values for the IC50 in the series with SKBr3 cells and in the series with BT474 cells were 3.1 pM and 7.14 pM, respectively.

B3: scFv (TCT)-MMAF-C5 DAR 6.8 (conjugate)
scFv: B1 scFv
As to B3, in series [1], the “aggregation by HPLC-SEC” value was 17% and the “aggregation by HPLC-SEC (in words)” value is “no aggregation”. For the same molecule, in the series with HER2, the association rate worked out at 1.2e+06 M⁻¹ s⁻¹ and the dissociation rate amounted to 0.0042 s⁻¹.

B4: scFv (TCT)-MMAF-C5 1 DAR 5.6 (conjugate)
scFv: B1 scFv
As to B4, the “aggregation by HPLC-SEC (in words)” value in series [1] is reported as “no aggregation”. In the series with HER2, the association rate came out at 770000 M⁻¹ s⁻¹ and the dissociation rate stood at 0.0042 s⁻¹.

B5: scFv (TCT1067)-Acetate DAR 16 (conjugate)
scFv: SGSGGSGQVQLVQSGAEVKKPGESLKISCKGSGYSFTSYWIAWVRQMPGKGLEYMGLIYPGDSDTKYSPSFQGQVTISVDKSVSTAYLQWSSLKPSDSAVYFCARHDVGYCTDRTCAAWPEWLGVWGQGTLVTVSSGGGGSGGGGSGGGGSQSVLTQPPSVSAAPGQKVTISCSGSSSNIGNNYVSWYQQLPGTAPKLLIYGHTNRPAGVPDRFSGSKSGTSASLAISGFRSEDEADYYCASWDYTLSGWVFGGGTKLTVLMASMTGGQQMG
As for B5, the “aggregation by HPLC-SEC (in words)” value in series [1] is recorded as “no aggregation”. In addition, in the series with HER2, the association rate worked out at 3.63e+06 M⁻¹ s⁻¹ and the dissociation rate turned out to be 7.64e-05 s⁻¹.

B6: scFv (TCT1067)-DM1-dPEG12 DAR 7 (conjugate)
scFv: B5 scFv
With B6, the “aggregation by HPLC-SEC” value in series [1] is listed as 1% aggregates. Besides, in the series with HER2, the association rate is 19500 M⁻¹ s⁻¹ and the dissociation rate amounted to 2.7e-05 s⁻¹.

B7: scFv (TCT1067)-DM1-dPEG12 DAR 8 (conjugate)
scFv: B5 scFv
Take B7: the “aggregation by HPLC-SEC” value in series [1] stood at 4% aggregates. Also, in the series with HER2, the association rate amounted to 13200 M⁻¹ s⁻¹ and the dissociation rate is 3.28e-05 s⁻¹.

B8: scFv (TCT1067)-MMAF-C5, DAR 6.4 (conjugate)
scFv: B5 scFv
On to B8, for which the “IC50 μg/ml” value was more than 5 µg/mL with U87 cells, 0.007 µg/mL in the series with SKBr3 cells and 0.008 µg/mL in the series with BT474 cells. Further, the values for the IC50 in the series with SKBr3 cells and in the series on BT474 cells were 250 pM and 286 pM, respectively.

B9: scFv (TCT1067)-P5-C5 DAR 10.9 (conjugate)
scFv: B5 scFv
Consider B9, for which, in series [1], the “aggregation by HPLC-SEC (in words)” value is reported as “no aggregation”. The molecule also came in with a dissociation rate with HER2 of 7.13e-05 s⁻¹.

As usually defined, the IC50 is the point on the concentration scale where inhibition reaches its midpoint.
